Data: article PMC4587339 (Journal of molecular biology, 2015)
Where “and” joins values, the source holds several entries; their conditions need not be identical. Equal entries are not always repeated.

T1: MBP-tagged L-terminase Binding Domain of P22 S-terminase (residues 140-162) (bacteriophage P22, UniProt P04893 140-162)
T1 chain (looked up): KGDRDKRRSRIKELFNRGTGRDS

T2: S-terminase (small terminase subunit) of bacteriophage P22, full length, MBP cleaved off (bacteriophage P22, UniProt P04893 1-162)
T2 sequence (looked up): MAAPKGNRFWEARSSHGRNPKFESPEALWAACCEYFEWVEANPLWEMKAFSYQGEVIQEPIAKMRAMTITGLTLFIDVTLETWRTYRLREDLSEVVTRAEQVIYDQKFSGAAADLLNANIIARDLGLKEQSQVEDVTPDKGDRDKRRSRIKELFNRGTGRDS

T3: full length L-terminase of bacteriophage P22, purified alone for the pull-down (bacteriophage P22, UniProt P26745 1-499)
T3 sequence (looked up): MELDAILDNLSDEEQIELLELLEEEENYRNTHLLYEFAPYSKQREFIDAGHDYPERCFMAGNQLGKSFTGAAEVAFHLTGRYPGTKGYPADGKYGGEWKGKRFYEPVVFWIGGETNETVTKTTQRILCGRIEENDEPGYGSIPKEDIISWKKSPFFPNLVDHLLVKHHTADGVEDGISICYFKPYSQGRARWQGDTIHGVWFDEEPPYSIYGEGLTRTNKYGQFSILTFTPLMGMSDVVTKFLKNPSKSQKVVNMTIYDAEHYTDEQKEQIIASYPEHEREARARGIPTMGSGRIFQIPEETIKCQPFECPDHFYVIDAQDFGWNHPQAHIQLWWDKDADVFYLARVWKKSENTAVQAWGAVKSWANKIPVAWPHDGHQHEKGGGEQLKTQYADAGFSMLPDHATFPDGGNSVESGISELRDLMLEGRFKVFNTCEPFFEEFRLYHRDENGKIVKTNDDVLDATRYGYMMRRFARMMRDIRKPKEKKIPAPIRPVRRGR

T4: L-terminase ATPase domain of bacteriophage P22 (residues 1-287) (bacteriophage P22, UniProt P26745 1-287)
T4 sequence (looked up): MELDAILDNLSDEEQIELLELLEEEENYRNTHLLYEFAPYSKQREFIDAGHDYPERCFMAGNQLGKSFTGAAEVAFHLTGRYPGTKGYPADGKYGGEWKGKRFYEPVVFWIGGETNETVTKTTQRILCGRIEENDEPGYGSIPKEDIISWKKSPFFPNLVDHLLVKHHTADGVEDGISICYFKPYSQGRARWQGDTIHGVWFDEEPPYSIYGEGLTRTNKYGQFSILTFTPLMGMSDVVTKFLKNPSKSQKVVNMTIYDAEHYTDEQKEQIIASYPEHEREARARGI

B1: L-terminase (large terminase subunit) of bacteriophage P22, full length, co-expressed (enzyme, UniProt P26745 1-499, looked up)
chain: T3 sequence (looked up)

Assays:
[1] = target: T1, MBP-tagged L-terminase Binding Domain …; assay: AUC
[2] = target: T2, S-terminase (small terminase subunit) …; assay: native MS
[3] = target: T3, full length L-terminase of …; assay: pull-down
[4] = target: T4, L-terminase ATPase domain of …; assay: pull-down

Binder	stoichiometry N [1] [L-terminase per MBP-LBD]	stoichiometry N [2]	binding result [3]	binding result [4]
B1	1	1 L-terminase per S-terminase nonamer and 2 L-terminase per S-terminase nonamer and 3 L-terminase per S-terminase nonamer	–	–
KGDRDKRRSRIKELFNRGTGRDS (domain or fragment, bacteriophage P22, UniProt P04893 140-162, looked up) [GST-tagged L-terminase Binding Domain of P22 S-terminase (residues 140-162)]	–	–	binds	binds
